Test results as given in patent publication US20210309732A1 (ELIXIRON IMMUNOTHERAPEUTICS HONG KONG, published 2021).

T1: mouse GM-CSF (mouse, UniProt P01587 18-141)
T1 sequence (looked up): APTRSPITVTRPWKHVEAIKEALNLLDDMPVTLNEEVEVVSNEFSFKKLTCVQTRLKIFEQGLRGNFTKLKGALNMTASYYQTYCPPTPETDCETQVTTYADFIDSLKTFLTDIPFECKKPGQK


What was measured:
[1] = target: recombinant human IL-3 (human) (UniProt P08700); assay: cell-based or functional assay
[2] = target: recombinant human GM-CSF (human) (UniProt P04141); assay: cell-based or functional assay
Chain of recombinant human GM-CSF (human) (P04141 18-144 limits assumed): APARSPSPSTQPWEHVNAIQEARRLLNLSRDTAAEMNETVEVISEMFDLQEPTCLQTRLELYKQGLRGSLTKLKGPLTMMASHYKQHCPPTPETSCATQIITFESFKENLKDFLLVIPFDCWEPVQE

[3] = target: recombinant human GM-CSF (human) (UniProt P04141); assay: SPR Biacore 3000, antibody captured by goat anti-human IgG, rhGM-CSF injected
[4] = target: recombinant human GM-CSF (human) (UniProt P04141); assay: ELISA, GM-CSF coated on the plate, anti-human kappa light chain-HRP, OD 450 nm
[5] = target: rhesus GM-CSF (rhesus) (UniProt Q9GL44); assay: as above
Chain of rhesus GM-CSF (rhesus) (Q9GL44 entry or part of it limits assumed): as the sequence (P04141 18-144 limits assumed) above, with S9G, E38K, I43V, T53S, R67Q, E104Q counted along it

[6] = target: T2, recombinant human GM-CSF (human, UniProt P04141 18-144); assay: Gator (pro), Coating Ag
T2 construct: also called rhGM-CSF; CSF2
T2 sequence (P04141 18-144 limits assumed): as the sequence (P04141 18-144 limits assumed) above

[7] = target: T2, recombinant human GM-CSF; assay: ELISA on coated rhGM-CSF, UBA relative to 1D2
How it was run: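 Antibody clones carrying SDR point mutants in VH or VL, each paired with the wild-type chain, were expressed in HEK293 cells. Culture media diluted 1:12000 were bound to plates coated with rhGM-CSF at 1 μg/mL for 1 h at room temperature. Detection used HRP anti-human antibody and Amplex Red fluorescence (Ex530/Em590), with UBA = fluorescence signal/dilution factor.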

[8] = target: T2, recombinant human GM-CSF; assay: Gator, Coating Ag
[9] = target: T2, recombinant human GM-CSF; assay: Biacore
[10] = target: T2, recombinant human GM-CSF; assay: cell-based or functional assay
[11] = target: T2, recombinant human GM-CSF; assay: Biacore; remark: listed apart in the source
[12] = target: T2, recombinant human GM-CSF; assay: Gator, Coating Ab
[13] = target: T1, mouse GM-CSF; assay: ELISA, GM-CSF coated on the plate, anti-human kappa light chain-HRP, OD 450 nm
Protocol: (§1) Human and mouse GM-CSF have about 56% homology and are species specific. Rhesus and GM-CSF has 96.5% homologous to human GM-CSF (Hutchinson et al, J Med Virol 2001, 65:561-565, Genbank accession number AY007376). […] ELISA was performed as followed. Briefly, GM-CSF proteins were coated on the ELISA absorbing plates, then blocked by 1% BSA in PBS. […] After incubation, the plates were washed three times with TBST and incubated with anti-human kappa light chain conjugated HRP secondary antibodies. Plates were washed three times, TMB peroxidase substrate was added and reactions were stopped by adding 1 N sulfuric acid.

[14] = target: T3, rhesus GM-CSF (rhesus, UniProt Q9GL44 18-144); assay: as above
T3 sequence (Q9GL44 entry or part of it limits assumed): as the sequence (P04141 18-144 limits assumed) above, with S9G, E38K, I43V, T53S, R67Q, E104Q counted along it
Protocol: as §1

[15] = target: T2, recombinant human GM-CSF; assay: as above
Protocol: as §1

[16] = target: T2, recombinant human GM-CSF; assay: Biacore; remark: listed apart in the source
[17] = target: T2, recombinant human GM-CSF; assay: cell-based or functional assay; remark: listed apart in the source
[18] = target: T2, recombinant human GM-CSF; assay: SPR Biacore 3000, antibody captured by goat anti-human IgG, rhGM-CSF injected
Protocol: The kinetic binding analysis of anti-GM-CSF antibodies to recombinant human GM-CSF (rhGM-CSF) was determined by Surface plasmon resonance (SPR) using the Biacore 3000 instrument (GE Healthcare). Goat anti-human IgG (5 μg/mL) (SouthernBiotech) was stabilized in […] acetate buffer, pH 4.5, and immobilized on an EDC/NHS pre-activated carboxymethylated dextran 5 (CMS) sensor chip (GE Healthcare) through amine coupling kit (GE Healthcare). HBS-EP buffer (HBS; 10 […], 0.005% surfactant Tween-20, pH 7.4) (GE Healthcare) was used as running buffer. […] CMS sensor chip coated only with goat anti-human IgG was used as reference chip. rhGM-CSF (Biolegend) was injected over the mAb-coated CMS sensor chip and reference chip at different concentrations. The flow rate was 30 μl/min. […] Injection time and dissociation time were 180 and 600 seconds. Data were fitted to a 1:1 model using the Biacore 3000 evaluation software.

[19] = target: T2, recombinant human GM-CSF; assay: ELISA, human GM-CSF coated on the plate, anti-human kappa light chain-HRP, OD 450 nm
Protocol: as §1

[20] = target: T3, rhesus GM-CSF; assay: ELISA, rhesus GM-CSF coated on the plate, anti-human kappa light chain-HRP, OD 450 nm
Protocol: as §1

Chain of recombinant human IL-3 (human) (P08700 20-152 limits assumed): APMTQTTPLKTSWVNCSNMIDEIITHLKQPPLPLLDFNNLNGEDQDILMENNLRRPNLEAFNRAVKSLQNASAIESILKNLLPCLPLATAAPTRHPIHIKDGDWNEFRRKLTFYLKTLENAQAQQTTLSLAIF

Molecule	Kd [6] [pM]	Kd [8] [nM]	Kd [9] [nM]	IC50 (M), inhibition of GM-CSF induced TF-1 cell proliferation (FIG. 5B) [10] [M]	Kd [11] [nM]	koff [11] [s⁻¹]	kon [11] [M⁻¹ s⁻¹]	Kd [12] [nM]	Ka [16] [M⁻¹]	Kd [16] [nM]	koff [16] [s⁻¹]	kon [16] [M⁻¹ s⁻¹]	IC50, inhibition of GM-CSF induced TF-1 cell proliferation [17] [pM]	IC50, inhibition of rhGM-CSF induced IL-8 secretion in U937 cells [17] [pM]	EC50 (read off the curve) [19] [pM]	EC50 (read off the curve) [20] [pM]	further results
MOR103 (otilimab) (antibody)																	Mean Fluorescence Intensity of phospho-STAT5 (pY694) in human PBMCs stimulated with 10 ng/mL rhIL-3, 2 ug/mL antibody (no antibody: 102) [1]: 106 MFI
AMG203 (namilumab) (antibody, INN chains, looked up, human IgG1, V domains shown, IgG1 kappa) VH: QVQLVQSGAEVKKPGASVKVSCKAFGYPFTDYLLHWVRQAPGQGLEWVGWLNPYSGDTNYAQKFQGRVTMTRDTSISTAYMELSRLRSDDTAVYYCTRTTLISVYFDYWGQGTMVTVSS VL: DIQMTQSPSSVSASVGDRVTIACRASQNIRNILNWYQQRPGKAPQLLIYAASNLQSGVPSRFSGSGSGTDFTLTINSLQPEDFATYYCQQSYSMPRTFGGGTKLEIK																	Mean Fluorescence Intensity of phospho-STAT5 (pY694) in human PBMCs stimulated with 10 ng/mL rhIL-3, 2 ug/mL antibody (no antibody: 102) [1]: 104 MFI; Mean Fluorescence Intensity of phospho-STAT5 (pY694) in human PBMCs stimulated with 10 ng/mL rhGM-CSF, 2 ug/mL antibody (no antibody: 122.0) [2]: 42.6 MFI; Kd [3]: 0.62 nM; koff [3]: 4.77e-05 s⁻¹; kon [3]: 296000 M⁻¹ s⁻¹; EC50 (read off the curve) [4]: 50 pM; EC50 (read off the curve) [5]: 50 pM
antibody 1D2 (antibody, V domains shown, also called 1D2-WT; WT) VH: QVQLVQSGAEVKKPGASVKVSCEASGYTFTDKYLHWVRQAPGQGLEWMAWINPKSGGTFYAQNFKGRVTVTRDTSINTAYLELTSLRLDDTSTYYCARGRDYYDQGAADLWGQGTMVTVSS VL: DIQLTQSPSSLSASVGDRVTITCRASQGINSVLAWYQQKPGKAPKLLLYAASKLESGVPSRFSGSGSGTDYTLTISSLQPEDFGTYYCQQYYSPVRTFGQGTKVEIKR	1.57	0.0176	0.162	2.28e-10	0.099	0.000173	1.75e+06	0.177	1.01e+10	0.099	0.000173	1.75e+06	63.1	59.4	~400	~500	binding affinity % of 1D2 [7]: 100%; IC50 (M), inhibition of GM-CSF induced TF-1 cell proliferation (FIG. 5A) [10]: 1.71e-10 M; binding result [13]: no binding (tested: about 4e-8 M); EC50 (read off the curve) [14]: ~60 pM; EC50 (read off the curve) [15]: ~80 pM; IC50, inhibition of rhGM-CSF induced CCL17 secretion from PBMCs [17]: 71.4 pM; IC50, inhibition of rhGM-CSF induced CCL17 secretion in human PBMCs [17]: 159 pM; Kd [18]: 0.0643 nM; koff [18]: 7.48e-05 s⁻¹; kon [18]: ~1.16e+06 M⁻¹ s⁻¹
1D2-D90E (DE) (antibody, IgG1, V domains shown, also called ID2-D90E (DE); DE mutant) VH: QVQLVQSGAEVKKPGASVKVSCEASGYTFTDKYLHWVRQAPGQGLEWMAWINPKSGGTFYAQNFKGRVTVTRDTSINTAYLELTSLRLDETSTYYCARGRDYYDQGAADLWGQGTMVTVSS VL: DIQLTQSPSSLSASVGDRVTITCRASQGINSVLAWYQQKPGKAPKLLLYAASKLESGVPSRFSGSGSGTDYTLTISSLQPEDFGTYYCQQYYSPVRTFGQGTKVEIKR					0.114	0.000198	1.74e+06						123	54	~500	~600	
1D2-D89E (ED) (antibody, IgG1, V domains shown, also called ID2-D89E (ED); ED mutant) VH: QVQLVQSGAEVKKPGASVKVSCEASGYTFTDKYLHWVRQAPGQGLEWMAWINPKSGGTFYAQNFKGRVTVTRDTSINTAYLELTSLRLEDTSTYYCARGRDYYDQGAADLWGQGTMVTVSS VL: DIQLTQSPSSLSASVGDRVTITCRASQGINSVLAWYQQKPGKAPKLLLYAASKLESGVPSRFSGSGSGTDYTLTISSLQPEDFGTYYCQQYYSPVRTFGQGTKVEIKR					0.0732	0.000188	2.58e+06						97.1	51	~500	~600	IC50, inhibition of rhGM-CSF induced CCL17 secretion from PBMCs [17]: 54.3 pM
1D2 SDR mutant Y103N/V32R (antibody, IgG1, V domains shown) VH: QVQLVQSGAEVKKPGASVKVSCEASGYTFTDKYLHWVRQAPGQGLEWMAWINPKSGGTFYAQNFKGRVTVTRDTSINTAYLELTSLRLDDTSTYYCARGRDYNDQGAADLWGQGTMVTVSS VL: DIQLTQSPSSLSASVGDRVTITCRASQGINSRLAWYQQKPGKAPKLLLYAASKLESGVPSRFSGSGSGTDYTLTISSLQPEDFGTYYCQQYYSPVRTFGQGTKVEIKR	5.84	0.0201	3.36	~6.83e-09				1.44	2.37e+08	4.22	0.0027	640000					
1D2 SDR mutant Y103R/V32R (antibody, IgG1, V domains shown) VH: QVQLVQSGAEVKKPGASVKVSCEASGYTFTDKYLHWVRQAPGQGLEWMAWINPKSGGTFYAQNFKGRVTVTRDTSINTAYLELTSLRLDDTSTYYCARGRDYRDQGAADLWGQGTMVTVSS VL: DIQLTQSPSSLSASVGDRVTITCRASQGINSRLAWYQQKPGKAPKLLLYAASKLESGVPSRFSGSGSGTDYTLTISSLQPEDFGTYYCQQYYSPVRTFGQGTKVEIKR	2.8	0.0309	7.76	~8.19e-09				4.14	4.14e+08	2.42	0.00241	998000					
